Where two headings read alike, the source gives them in different places.
What was measured:
[1] = cited from earlier work
[2] = in NaH2PO4; cited from earlier work
[3] = Thermal stability of lysozyme in TCH by differential scanning calorimetry; assay type: physicochemical
Description: TCH solutions were prepared, water was added, and the water content was measured using Karl Fischer titration until the desired solutions were achieved. Lysozyme was weighed into the container and the appropriate amount of TCH was added to achieve a solution with a concentration of approximately 1 mg/mL. Samples were gently inverted several times and left at room temperature for one hour or overnight to allow the lysozyme to rehydrate and go into solution. Some samples were dried by evaporative drying and rehydrated prior to scanning Another sample of lysozyme in 0.1M sodium acetate buffer pH 4 was prepared for comparison.
To determine the stability of lysozyme in TCH over time, a set of samples was prepared at stable moisture contents and stored at the appropriate humidity at room temperature for a period of five weeks. These samples were prepared with a protein concentration of 10 mg/mL prior to storage. After five weeks, they were diluted to approximately 1 mg/mL and scanned using differential scanning calorimetry (DSC).
A Micro-cal VP DSC was used for determining the thermal stability of the protein. A baseline was established by scanning the TCH solution without protein at least three times until repeatability was evident. The TCH solutions used for the baseline scans are identical to the sample solutions, without protein. The baseline scans of the solutions without protein help eliminate noise resultant from variation in the sample cells. […] The concentration of lysozyme in each sample was verified prior to scanning by reading the absorbance at 280 nm on the Biotek Synergy plate reader. […]
The DSC thermal traces were fit in OriginPro with a non-two-state model that includes an output of both calorimetric enthalpy and Van't Hoff enthalpy, Hv. The calorimetric enthalpy is determined by the area under the curve and depends on the selected baseline as well as the normalized concentration. […] The number of intermediate steps in the unfolding process can be determined by taking the ratio of calorimetric enthalpy to Van't Hoff enthalpy. […]

[4] = Solubility of lysozyme by turbidimetric assay (absorbance at 600 nm); assay type: physicochemical
Description: Initial solubility studies were performed on the model protein lysozyme in water. Samples having known concentrations were prepared by weighing the lysozyme and adding the appropriate amount of water to get the desired concentration in mg/mL. The samples were gently inverted several times and stored at room temperature for 1 hour to overnight to allow the protein to rehydrate. Solubility limits were determined via turbidimetric assay.
The samples were then placed in a Biotek Synergy plate reader and absorbance was measured from 200 nm to 900 nm. As FIG. 1 illustrates, lysozyme has a characteristic […] at 280 nm that can be used along with Beer-Lambert's law to measure the concentration, however, for samples above 5 mg/mL, the instrument sensor becomes saturated and the readings are not useful for determining concentration. Therefore, to determine solubility limits, the absorbance at 600 nm was used to indicate the presence of aggregate or particulate in suspension. At this wavelength, far from the characteristic absorbance, any increase in absorbance is an indicator that the protein is not completely in solution. A baseline was established by measuring the absorbance of pure water or TCH solution without any lysozyme. Samples were measured in triplicate and the averages are plotted in the accompanying figures.
To determine the effect of TCH on the solubility of lysozyme, values for the solubility of lysozyme in TCH formulations as a function of water content were obtained. […] There is a characteristic peak proximate 280 nm that can be used can be used along with Beer-Lambert's law to determine concentrations, however, the spectra is near zero away from this peak.

Compound: OC[C@H]1O[C@H](O[C@H]2O[C@H](CO)[C@@H](O)[C@H](O)[C@H]2O)[C@H](O)[C@@H](O)[C@@H]1O [trehalose]
- solubility limit ([1]; 10° C.): 42.3 % (grams trehalose per gram solution)
- solubility limit ([1]; 20° C.): 46.6 % (grams trehalose per gram solution)
- water content corresponding to solubility limit ([1]; 20° C.): 53.4 % (grams water per gram solution)
- solubility limit ([1]; 40° C.): 59.7 % (grams trehalose per gram solution)
- solubility limit, as water content ([1]; pure trehalose): 53 % water by weight

Compound: lysozyme
- ratio of calorimetric to Van't Hoff enthalpies [2]: ~1
- degradation after storage ([3]; five weeks of storage in stable TCH solutions, moisture content and/or humidity controlled, room temperature): no sign of degradation
- thermal unfolding temperature, stored versus fresh samples ([3]; stored five weeks in TCH, DSC): slightly higher unfolding temperature
- thermal unfolding temperature ([3]; versus weight percent of TCH in solution, DSC): increases with increasing concentrations of TCH
- solubility ([4]; in TCH 1:4 compositions, all water content levels tested (0.01 to 0.70 grams water per gram dry weight)): at least 40 mg/mL
- solubility (in words) ([4]; in TCH solutions): readily soluble
- solubility (no indication of solubility issues up to maximum concentration tested) ([4]; in pure water): ≥ 200 mg/mL
- absorbance at 600 nm ([4]; lysozyme in TCH solutions, each sample measured): below 0.05

— patent US20170332622A1, “COMPOSITIONS AND METHODS FOR PRESERVATION AND STORAGE OF BIOLOGICAL MATERIALS” (The University of North Carolina at Charlotte, priority 2016, published 2017)
